These results are taken from the nanobody polyreactivity screen of Harvey et al. (2022).

This data set is described as follows: yeast display, Sf9 membrane polyspecificity reagent, FACS + sequencing; frameworks hold sequencing errors. A digest of the protocol: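 Galactose-induced (36–48 hours) yeast carrying a synthetic nanobody display library were exposed to 10% biotinylated, detergent-solubilized Sf9 membrane reagent at 4 °C for 1 hour. FACS followed streptavidin microbead enrichment, using low and high (top ~1%) gates for expression (anti-HA) and reagent binding (streptavidin). Colony PCR, MiSeq 2 × 250 sequencing and CDR-length filtering followed. Labels for polyreactivity reflect the gate of origin.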
For “QVQLVESGGGLVQAGGILRLSCAASGSIFGWYAMGWYRQAPGKERELVAGISWSGANTYYADSVKGRFTISRDNAKNTVYLQMNSLKPEDTAVYYCAAGPGRYYSRRYGYWGQGTQVTVSS”, the “polyreactivity (PSR sort gate)” value is recorded as “high polyreactivity”. As for “QVQLVESGGGLVQAGGILRLSCAASGSIFIYYAMVWYRQAPGKERELVAAISSSGGRTYYADSVKGRFTISRDNAKNTVYLQMNSLTPEDTAVYYCNAVGRRWYRDPARYNEYNYWGQGTQVTVSS”, the entry is “high polyreactivity”; as for “QVQLVESGGGLVQAGGILRLSCAASGSIFNRNAMGWYRQAPGKEREFVADISWSGGSTYYADSVKGRFTISRDNAKNTVYLQMNSLKPEDTAVYYCAAKSTGRWWRAGYVYWGQGTQVTVSS”, “high polyreactivity”; as for “QVQLVESGGGLVQAGGILRLSCAASGSIFQTNAMGWYRPAPGKERELVAAISQRGGRTYYADSVKGRFTISRDYAKNTVYLHLKSLKPEDTAVYYGAATQSQRVHAARYGYWGQGSQVTVSS”, “high polyreactivity”. With “QVQLVESGGGLVQAGGILRLSCAASGSIFYHYAMGWYRQAPGKDREFVAAITRRGTSTYYADSVKGRFTISRDIAKKTVYLQMNSLKPEDTAVYYWAARYGPNMDYWGQGTQVTVSS”, the “polyreactivity (PSR sort gate)” value is recorded as “high polyreactivity”. Take “QVQLVESGGGLVQAGGILRLSCAASGSIVVGYAMGWYRPAPGKERELVGAITGSGTRTDYADSVKGRFTISRDNAKNPVYLHMNSLKPEDTAVYNCAAPMSYKNVKYDYWGQGTQVTVSS”: the “polyreactivity (PSR sort gate)” value was “low polyreactivity”. As for “QVQLVESGGGLVQAGGILRLSCAASGSNFWTNAMGWYRQAPGKERELVARISPGGSTNYADSVKGRFTISRDNAKNTVYLQMNSLKPEDTAVYYCAAQRGYVYGYDYWGQGTQVTVSS”, the entry is “low polyreactivity”; as for “QVQLVESGGGLVQAGGILRLSCAASGSTFGYYAMGWYRPAPGKERELVAAIRSDDITYYADSVKGRFTISRDNAKNTVYLQMISLKPEDTAVYYCAVSQRYGGRRGCYWGQGTQVTVSS”, “low polyreactivity”. For “QVQLVESGGGLVQAGGILRLSCAASGSTFIYNAMGLYRQAPGKEREFVASISASGGSTRYADSVKGRFTISRDNAKNTVYLQMNSLKQEDTAVYYCAKLLYLGRWRFPAGYNHWGQGTQVTVSS”, the “polyreactivity (PSR sort gate)” value was “high polyreactivity”. In the case of “QVQLVESGGGLVQAGGILRLSCAASGSTFNDYAMGRYRQAPGKERELVAAISASGSITYYADSVKGRFTISRDIAKNTVNLQMISLKPEDTAVYYCNARGYRGYDYWGQGTQVTVSS” it was “high polyreactivity”. In the case of “QVQLVESGGGLVQAGGILRLSCAASGSTFRIYAKGWYRPAPGKERELVAGIRSSGGSTYYADSVKGRFTISRDKAKNTDYLQLNSLKPEDTAVYYCAKRHPYSWGSYQRYNYWGQGTQVTVSS” it was “low polyreactivity”; in that of “QVQLVESGGGLVQAGGILRLSCAASGSTFSYYAMGWYRQAPGKERELVARISKDTGSTYYADSVKGRFTISRDNAKNTVYLQMNSLKPEDTAVYYCAAELDYFPGYDYWGQGTQVTVSS”, “low polyreactivity”; in that of “QVQLVESGGGLVQAGGILRLSCAASGSTFYRNAMGWYRQEPGKEREFVAAISFRGGGTYADSVKGRFTISRDNAKNTVYLQMNSLKPEDSAVYYCAAESKPRWYVRYDYWGQGTQVTVSS”, “low polyreactivity”. In the case of “QVQLVESGGGLVQAGGILRLSCAASVRIFGVYAMGWYRQAPGKERELVAAITSGGSTTYADSVKGRFTISRDNAKNNVYLQMNSLKQEDTAVYYCNKEPQPFFLYGYWGQGTQVTVSS”, the “polyreactivity (PSR sort gate)” value was “low polyreactivity”. In the case of “QVQLVESGGGLVQAGGILRLSCAAYGRTFYLYTMGWYRQEPGKERELVAAISRGGRTYADSVKGRFTISRDNAKNTVYLQMNSLKPEDTAVYYCADRGYFYYSRYDSWGQGTQVTVSS” it was “low polyreactivity”; in that of “QVQLVESGGGLVQAGGILRLSCDASGRIFYSYAMGWYRQAHGKERVLVAAIDESVGSKYYADSVKGRFTISRDNAKNTVYLHMNSLKREDTAVYYCAADYLLVLFYYWGQGTQVTVSS”, “low polyreactivity”; in that of “QVQLVESGGGLVQAGGILRLSCPASGIIIPLYAMGWYIQAPGKERELVATINIGGSTNYADSVKGRFTISRDNAKNTVYLQMNSLKPEDTAVYYCAADVDSLQRYESWGQGTQVTVSS”, “low polyreactivity”. For the sequence “QVQLVESGGGLVQAGGILRLSFAASGSTFYPNTMGWYRQAPGKERELVAAITNGGSTNYADSVKGRFTIARDNAKNTVYLQMNSLKPEDTAVYDCAADGYDQWGRDVVYLIWTSYDYWGQGTQVTVSS”, the “polyreactivity (PSR sort gate)” value is recorded as “high polyreactivity”. Take “QVQLVESGGGLVQAGGILRLSSAASGFTFSRNAMGWYRQAPGKERELVASISGRGGRTYYADSVKGRFTISRDNAKNTVSLQMNSLKPEDTAVYDCAARWRQRKSVRYGQQGYDYWGQGTQVSVSS”: the “polyreactivity (PSR sort gate)” value is on record as “high polyreactivity”.

In the case of “QVQLVESGGGLVQAGGNLRLSCAASGFIFTRYAMGWYRQAPGKERELVAAISTSGDRTYYADSVKGRFTISRDNAKNTVYLQMNSLKPEDTAVYYCATSKSYSSKLYDYWGQGTQVTVSS”, the “polyreactivity (PSR sort gate)” value is reported as “high polyreactivity”. For “QVQLVESGGGLVQAGGNLRLSCAASGGIFYLYAMGWYRPAPGKERELVASINWRSATTYYADSVKGRFTISRDNAKNTVYLQMNSLKPEDTAVYYCNVQWYGGYDYWGQGSQVTVSS”, the “polyreactivity (PSR sort gate)” value was “low polyreactivity”. As for “QVQLVESGGGLVQAGGNLRLSCAASGNIFYVYAMGWYRQAPGKERELVAAITRSGGRTYYADSVKGRFTISRDNAKNTVYLQMTSLKPEDTAVYYCAADRGVTRQKMDYWGQGTQVTVSS”, the entry is “low polyreactivity”. As for “QVQLVESGGGLVQAGGNLRLSCAASGRIFSSYAMGWYRQAPGKERELVAAITGTGGTTYYADSVKGRFTISRDNAKYTVYLQMNSLKPEDTAVYYCNAERIYRLSRDSAVQYDYWGQGTQVTVSS”, the entry is “low polyreactivity”; as for “QVQLVESGGGLVQAGGNLRLSCAASGSIFPRNAMGWYRQAPGKERELVAAISWRGGSTYYADSVKGRFTISRDNAKNTVYLQMNSLKPEDTAVYYCAATTYRSRYDYWGQGTQVTVSS”, “high polyreactivity”; as for “QVQLVESGGGLVQAGGRLGLSCAACGFICDGYAMGWYRQAPGKDRELVAAITGSGGSPYYADSVKGRFTISRDNAKNTVYLQMNSLKPEDTAVYYCNTDYYSVRSGSYWHFPGGDYWGQGTQVTVSS”, “low polyreactivity”. In the case of “QVQLVESGGGLVQAGGRLLLSCAASGSTFDAYAMGWYRQAPGKERELVAAITNGGSTYYADSVKGRFTISRDNAKNTVYFQMNCLKPEDTAVYYCNAQHRTVWGIFGRFNYWGLGTQVTVSS” it was “low polyreactivity”; in that of “QVQLVESGGGLVQAGGRLPISCAASGLTFTSNAMGGYIQAPGKERELVASITWYGGSTSYADSVKGRFTISRDYAKNTVDFQMNSLKPEDTAVSYCAADAWRSYGYRAYYYWGQGTQVTVSS”, “high polyreactivity”; in that of “QVQLVESGGGLVQAGGRLRFSCAASGSTFVNNAMGWYRQAPGKERELVAAISRRGGRTYYADSEKGRFTISRDNAKNTVYLQMKSLKPEDTAVYYCAADESRYDYWGQGTQVTVSS”, “high polyreactivity”. Regarding “QVQLVESGGGLVQAGGRLRISCAASGRTFYRYAMGWYRQAPGKERELVAAITYSGGSTNYADSVKGRFTISRDYAKNTVYLQMNSLKPEDTAVYYCATRYNVVRWPYYYWGQGTQVNVSS”, the “polyreactivity (PSR sort gate)” value was “high polyreactivity”. As for “QVQLVESGGGLVQAGGRLRISFAATGITSGRYAMGGYRQAPGNERELVAAISNSGGSTYYADSVKGRFTISRDNAKNTVYLQMNSLKPEDTAVYYCAARSASSRMDYWGQGTQVTVSS”, the “polyreactivity (PSR sort gate)” value is given as “high polyreactivity”. Regarding “QVQLVESGGGLVQAGGRLRLICAASGFIFGTYAMGWYRQAPGKEREFDAAINWGGGRTYYADSVKGRFTISRDNAKNTVYLQMISLKAEDTAVYYCNIRLIYYRGSYYSLRFDYWGQGTQVTLSS”, the “polyreactivity (PSR sort gate)” value is “high polyreactivity”.

On to “QVQLVESGGGLVQAGGRLRLICAASGSIFVSYALGWYRQAPGKERELVAAISTTGGRTRYADSVKGRFTISRDNAQNTVYLQMNSLKPEDTAVYYCAAVGARKMYYWGQGTQVTVSS”, for which the “polyreactivity (PSR sort gate)” value is “high polyreactivity”. As to “QVQLVESGGGLVQAGGRLRLICAASGSTFVINDMGWYRQAPGKERELVASISWSGGDTYYADSVKGRFTISRDNAKNTVYLQMNSLKPEDTAVYYCNRVSPYGSYDYWGQGTQVTVSS”, the “polyreactivity (PSR sort gate)” value is listed as “low polyreactivity”.

Turning to “QVQLVESGGGLVQAGGRLRLRCDPSGLTSYYAMGWYRQAPGKERELVSRIRSRSGSTYYADSVKGRFTISRDNAKNTVYLQMNSLKPEDTAVYYCNARQLLYAIRDSWGQVTQVTVSS”, the “polyreactivity (PSR sort gate)” value is “high polyreactivity”. As for “QVQLVESGGGLVQAGGRLRLSCAASARIFYSKVMGWYRQAPGKERELVAAISGRTGGTYYADSVKGRFTISRDNAKNTVYLQMNSLKPEDTAVYYCAARVIDYYGSGPYDYWGQGTQVTVSS”, the entry is “low polyreactivity”; as for “QVQLVESGGGLVQAGGRLRLSCAASGAIFDRNVMGWYSQAPGQERELVAAISGSGGRTYYADSVKGRFTISRDNAKNTVYLQMNSLKPEDTAVYYCAARAFRVVPGGDYWGQGTQVTVSS”, “high polyreactivity”. In the case of “QVQLVESGGGLVQAGGRLRLSCAASGCTSGLNVRGWYRQAPGQERELVAAMSTGGGSTYYADSVKGPFTISRDNAKNTVYLQMTSLQPEDTAVYYCAADQSSVQDFIYNYWAQGTQVTVSS” it was “low polyreactivity”; in that of “QVQLVESGGGLVQAGGRLRLSCAASGFIFGSYAMGWYRQAPGKERELVAVISSSGGRTYYADSVKGRFTISRDNAKNTVYLQMNSLKPEDTAVYYCNAKSRLFPTYRIYDYWGQGTQVTVSS”, “high polyreactivity”. In the case of “QVQLVESGGGLVQAGGRLRLSCAASGFIFKQYVMGWYRQAPGKERELVAAISRSGGSTYYADSVKGRFTISRDNAKNTVYLQMNSLKPEDNAVYYCNADNYYPDYDSWGQGTQVTVSS”, the “polyreactivity (PSR sort gate)” value was “high polyreactivity”. On to “QVQLVESGGGLVQAGGRLRLSCAASGFIFLNYTMGWYRQAPGKEREMVADISNGSDRTYFADSLKGRFTISRENAKNTVYLQMNSLKPEDTAVYYCAKDRDFSSPPTESGFDYWGQGTQVTVSS”, for which the “polyreactivity (PSR sort gate)” value is on record as “low polyreactivity”. In the case of “QVQLVESGGGLVQAGGRLRLSCAASGFIFPLYAMGWYRQAPGKERELVAAIRASSGSTYYADSVKGRFTISRDNAKNSVYLQMNSLKPEDTAVYYCNARQYVWYPYEYWGQGTQVTVSS” it was “high polyreactivity”.
